Measurements: patent US10801046B2, “Methods and materials for biosynthesizing multifunctional, multivariate molecules via carbon chain modification” (INVISTA NORTH AMERICA S.A.R.L., priority 2016, dated 2020)

Key:
[1] = Aminotransferase activity, heptane-1,7-diamine to 7-aminoheptanal, L-alanine formation by RP-HPLC; assay type: biochemical; conditions: cell free extract, 10 mM substrate, 25° C., 4 h, against empty vector control, FIG. 50
Method: A sequence encoding an N-terminal His-tag was added to the Chromobacterium violaceum, Pseudomonas aeruginosa, Pseudomonas syringae, Rhodobacter sphaeroides, Escherichia coli, and Vibrio fluvialis genes encoding the aminotransferases of SEQ ID NOs: 116 (GenBank Accession No. AAQ59697.1), 119 (RefSeq Accession No. NP_417544.5), 125 (GenBank Accession No. AAGO8191.1), 126 (GenBank Accession No. AAY39893.1), 127 (GenBank Accession No. ABA81135.1), and 128 (GenBank Accession No. AEA39183.1), respectively such that N-terminal HIS tagged aminotransferases could be produced. The modified genes were cloned into a pET21a expression vector under the T7 promoter. Each expression vector was transformed into a BL21[DE3] E. coli host. Each resulting recombinant E. coli strain were cultivated at 37° C. in a 250 mL shake flask culture containing 50 mL LB media and antibiotic selection pressure, with shaking at 230 rpm. Each culture was induced overnight at 16° C. using 1 mM IPTG.
(§1) The pellet from each induced shake flask culture was harvested via centrifugation. Each pellet was resuspended and lysed via sonication. The cell debris was separated from the supernatant via centrifugation and the cell free extract was used immediately in enzyme activity assays.
(§2) Enzyme activity assays in the reverse direction (i.e., heptane-1,7-diamine to 7-aminoheptanal) were performed in a buffer composed of a final concentration of 50 mM HEPES buffer (pH=7.5), 10 mM heptane-1,7-diamine, 10 mM pyruvate, and 100 μM pyridoxyl 5′ phosphate. Each enzyme activity assay reaction was initiated by adding cell free extract of the aminotransferase gene product or the empty vector control to the assay buffer containing the heptane-1,7-diamine and then incubated at 25° C. for 4 h, with shaking at 250 rpm. The formation of L-alanine was quantified via RP-HPLC.

[2] = In vivo aminotransferase activity screening, 7-aminoheptanoate by LC-MS; assay type: cell-based, Escherichia coli; conditions: in vivo conversion of 7-oxoheptanoate to 7-aminoheptanoate, 120 aminotransferases screened
How it was run: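 Aminotransferase library expressed in E. coli T7 Express lysY/Iq co-expressing sfp, CAR_Srot and BioC, grown overnight at 37° C in rich media with 0.4 mM IPTG and 1 g/L monomethyl heptanedioate, heptanedioate or no acid. Culture supernatants analysed by LC-MS for 7-aminoheptanoate or its monomethyl ester.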

[3] = Aminotransferase activity, N7-acetyl-1,7-diaminoheptane to N7-acetyl-7-aminoheptanal, L-alanine formation by RP-HPLC; assay type: biochemical; conditions: cell free extract, 10 mM substrate, 25° C., 4 h, against empty vector control, FIG. 51
Method: The activity of the N-terminal His-tagged aminotransferases of SEQ ID NOs: 116 (GenBank Accession No. AAQ59697.1), 119 (RefSeq Accession No. NP_417544.5), 125 (GenBank Accession No. AAGO8191.1), 126 (GenBank Accession No. AAY39893.1), 127 (GenBank Accession No. ABA81135.1), and 128 (GenBank Accession No. AEA39183.1) (see Example 6) for converting N7-acetyl-1,7-diaminoheptane to N7-acetyl-7-aminoheptanal was assayed using a buffer composed of a final concentration of 50 mM HEPES buffer (pH=7.5), 10 mM N7-acetyl-1,7-diaminoheptane, 10 mM pyruvate and 100 μM pyridoxyl 5′ phosphate. Each enzyme activity assay reaction was initiated by adding a cell free extract of the aminotransferases or the empty vector control to the assay buffer containing the N7-acetyl-1,7-diaminoheptane then incubated at 25° C. for 4 h, with shaking at 250 rpm. The formation of L-alanine was quantified via RP-HPLC.

[4] = Aminotransferase activity, reverse direction (7-aminoheptanoate to 7-oxoheptanoate), L-alanine formation by RP-HPLC; assay type: biochemical; conditions: cell free extract, 10 mM substrate, 25° C., 4 h, against empty vector control, FIG. 48
Method: (§3) A sequence encoding an N-terminal His-tag was added to the genes from Chromobacterium violaceum, Pseudomonas syringae, Rhodobacter sphaeroides, and Vibrio Fluvialis encoding the aminotransferases of SEQ ID NOs: 116 (GenBank Accession No. AAQ59697.1), 126 (GenBank Accession No. AAY39893.1), 127 (GenBank Accession No. ABA81135.1), and 128 (GenBank Accession No. AEA39183.1), respectively such that N-terminal HIS tagged aminotransferases could be produced. Each of the resulting modified genes was cloned into a pET21a expression vector under control of the T7 promoter and each expression vector was transformed into a BL21 [DE3] E. coli host. The resulting recombinant E. coli strains were cultivated at 37° C. in a 250 mL shake flask culture containing 50 mL LB media and antibiotic selection pressure, with shaking at 230 rpm. Each culture was induced overnight at 16° C. using 1 mM IPTG.
as §1
as §2, with “7-aminoheptanoate” for “heptane-1,7-diamine”, “7-oxoheptanoate)” for “7-aminoheptanal)”, “7-aminoheptanoate,” for “heptane-1,7-diamine,”, “pyruvate” for “pyruvate,”, “and” for “and then”, “L-alanine from pyruvate” for “L-alanine”

[5] = Aminotransferase activity, forward direction (7-oxoheptanoate to 7-aminoheptanoate), pyruvate formation by RP-HPLC; assay type: biochemical; conditions: cell free extract, 10 mM substrate, 10 mM L-alanine, 25° C., 4 h, against empty vector control, FIG. 49
Method: as §3
The pellet from each induced shake flask culture was harvested via centrifugation. Each pellet was resuspended and lysed via sonication. […]
Enzyme activity in the forward direction (i.e., 7-oxoheptanoate to 7-aminoheptanoate) was confirmed for the aminotransferases of SEQ ID NO: 126 (GenBank Accession No. AAY39893.1), SEQ ID NO: 127 (GenBank Accession No. ABA81135.1), and SEQ ID NO: 128 (GenBank Accession No. AEA39183.1). […] The formation of pyruvate was quantified via RP-HPLC.

B1: SEQ ID NO: 128: Vibrio fluvialis aminotransferase, positive control of the in vivo screen (protein, listed as Vibrio fluvialis)
chain: MNKPQSWEARAETYSLYGFTDMPSLHQRGTVVVTHGEGPYIVDVNGRRYLDANSGLWNMVAGFDHKGLIDAAKAQYERFPGYHAFFGRMSDQTVMLSEKLVEVSPFDSGRVFYTNSGSEANDTMVKMLWFLHAAEGKPQKRKILTRWNAYHGVTAVSASMTGKPYNSVFGLPLPGFVHLTCPHYWRYGEEGETEEQFVARLARELEETIQREGADTIAGFFAEPVMGAGGVIPPAKGYFQAILPILRKYDIPVISDEVICGFGRTGNTWGCVTYDFTPDAIISSKNLTAGFFPMGAVILGPELSKRLETAIEAIEEFPHGFTASGHPVGCAIALKAIDVVMNEGLAENVRRLAPRFEERLKHIAERPNIGEYRGIGFMWALEAVKDKASKTPFDGNLSVSERIANTCTDLGLICRPLGQSVVLCPPFILTEAQMDEMFDKLEKALDKVFAEVA
- acceptance of heptane-1,7-diamine as substrate, forming 7-aminoheptanal [1]: accepted heptane-1,7-diamine as substrate
- 7-aminoheptanoate yield compared to the positive control (F2XBU9) [2]: higher 7-aminoheptanoate yields
- acceptance of N7-acetyl-1,7-diaminoheptane as substrate, forming N7-acetyl-7-aminoheptanal [3]: accepted N7-acetyl-1,7-diaminoheptane as a substrate
- acceptance of 7-aminoheptanoate as substrate [4]: accepted 7-aminoheptanote as substrate
- acceptance of 7-oxoheptanoate as substrate, forming 7-aminoheptanoate [5]: accepted 7-oxoheptanoate as a substrate
